According to patent US11814447B2, “Peptide ligands for binding to EphA2” (BICYCLERD LIMITED, priority 2018, dated 2023):
Starred links: 1 amine or outer side, 2 acyl side, 3 side chain; linkers in the order of their positions; H or OH if unused. Positions of bridges follow the written chain, without caps; N, C: chain ends. Non-standard residues stand in square brackets, D forms with d. No end group written: not given here. ThiAz = 3-(1,2,4-triazol-1-yl)-alanine, O=C([C@H](Cn1cncn1)N[*:1])[*:2]; TATA = O=C(CC[*:1])N1CN(C(=O)CC[*:2])CN(C(=O)CC[*:3])C1; Ala(2-furyl) = N[C@@H](Cc1ccco1)C(=O)O; 1Nal = N[C@@H](Cc1cccc2ccccc12)C(=O)O; TBMB = c1c(C[*:1])cc(C[*:3])cc1C[*:2]; hArg = N=C(N)NCCCC[C@H](N)C(=O)O; 2Thi = N[C@@H](Cc1cccs1)C(=O)O; Tle = CC(C)(C)[C@H](N)C(=O)O; Pip = O=C(O)[C@@H]1CCCCN1; Aze = O=C(O)[C@@H]1CCN1; Aib = CC(C)(N)C(=O)O; azaGly = NNC(=O)O; βAla = NCCC(=O)O; Sar = CNCC(=O)O

How the values were obtained:
Human EphA2 (Ecto) [1] = target: T1, Human EphA2 (Ecto) (Human, UniProt P29317 24-537); assay: FP competition; tracer Reference Compound C
T1 construct: extracellular domain; in-house)
Protocol: (§1) Peptides without a fluorescent tag were tested in competition with a peptide with a fluorescent tag and a known Kd (Table 2). Peptides were diluted to an appropriate concentration in assay buffer as described in the direct binding assay with a maximum of 5% DMSO, then serially diluted 1 in 2. […] Measurements were conducted as for the direct binding assay, however the gain was determined prior to the first measurement. Data analysis was in Systat Sigmaplot version 12.0 where the mP values were fit to a user defined cubic equation to generate a Ki value: […]
T1 sequence (P29317 24-537): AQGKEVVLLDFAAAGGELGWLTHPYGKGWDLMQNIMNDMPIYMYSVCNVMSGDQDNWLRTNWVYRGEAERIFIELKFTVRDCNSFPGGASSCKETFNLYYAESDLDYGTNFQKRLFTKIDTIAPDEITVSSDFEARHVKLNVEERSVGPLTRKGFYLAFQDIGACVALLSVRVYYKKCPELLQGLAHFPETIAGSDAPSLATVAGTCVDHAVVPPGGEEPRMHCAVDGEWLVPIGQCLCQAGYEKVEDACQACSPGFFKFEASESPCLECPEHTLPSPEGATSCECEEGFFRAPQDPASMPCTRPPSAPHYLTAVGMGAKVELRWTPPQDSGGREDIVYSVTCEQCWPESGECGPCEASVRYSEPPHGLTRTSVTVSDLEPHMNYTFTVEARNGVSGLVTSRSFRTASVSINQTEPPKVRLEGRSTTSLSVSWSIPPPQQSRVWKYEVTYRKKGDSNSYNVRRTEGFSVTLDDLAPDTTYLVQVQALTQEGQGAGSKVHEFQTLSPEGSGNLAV

Human EphA2 (Ecto) [2] = target: T2, Human EphA2 (Ecto) (Human, UniProt P29317 24-537); assay: FP competition, tracer Compound 18
T2 construct: extracellular domain
Protocol: as §1
T2 sequence (P29317 24-537): as above

Row | Binder | Ki (Human EphA2 (Ecto) [1]) [nM] | Ki (Human EphA2 (Ecto) [2]) [nM]
1 | HSGCRPDPRCAYMNVCA (linker 4-10-16 via TATA) [Bicycle Compound Number 21 (TATA scaffold), HSGCRPDPRCAYMNVCA] | 62.1 | 
2 | [Sar][Sar]AH[dD]VPCPWGPFWCPVNRPGC (linker 8-15-22 via TBMB) [Bicycle Compound 209] |  | 1.25
3 | Ac-[Sar][Sar]A[dH]D[Tle]PCPWGPFWCPVNRPGC (linker 8-15-22 via TBMB) [Bicycle Compound 204] |  | 2.15
4 | Ac-[Sar][Sar]AH[dD]V[Sar]CPWGPFWCPVNRPGC (linker 8-15-22 via TBMB) [Bicycle Compound 212] |  | 4.95
5 | [Sar][Sar]AHD[Tle]PCPWGPFWCPVNRPGC (linker 8-15-22 via TBMB) [Bicycle Compound 217] |  | 0.49
6 | [Sar][Sar]A[2Thi]DVPCPWGPFWCPVNRPGC (linker 8-15-22 via TBMB) [Bicycle Compound 201] |  | 0.6
7 | Ac-[Sar][Sar]AH[dD][Tle]PCPWGPFWCPVNRPGC (linker 8-15-22 via TBMB) [Bicycle Compound 211] |  | 3.1
8 | [βAla][Sar][Sar][Sar][Sar][Sar][Sar][Sar][Sar][Sar][Sar]ACVPDRRCAYMNVC (linker 13-19-25 via TATA) [Bicycle Compound Number 17 (TATA scaffold), (β-Ala)-Sar10-ACVPDRRCAYMNVC] | 85 | 
9 | SRPCVIDSRCAYMNVCA (linker 4-10-16 via TATA) [Bicycle Compound Number 19 (TATA scaffold), SRPCVIDSRCAYMNVCA] | 94.8 | 
10 | [Sar][Sar]AHDV[Aib]CPWGPFWCPVNRPGC (linker 8-15-22 via TBMB) [Bicycle Compound 220] |  | 0.83
11 | Ac-[Sar][Sar]A[dH]DVPCPWG[Aib]FWCP[Tle]NR[Aib]GC (linker 8-15-22 via TBMB) [Bicycle Compound 233] |  | 4.8
12 | Ac-[Sar][Sar]A[dD]DVTCP[1Nal]G[Aib]FWCP[Tle]N[hArg]PGC (linker 8-15-22 via TBMB) [Bicycle Compound 284] |  | 3.8
13 | [βAla][Sar][Sar][Sar][Sar][Sar][Sar][Sar][Sar][Sar][Sar]HDVPCPWGPFWCPVNRPGC (linker 16-23-30 via TBMB) [Bicycle Compound 223] |  | 1.29
14 | Ac-[Sar][Sar]AH[dD]V[Aib]CPWGPFWCPVNRPGC (linker 8-15-22 via TBMB) [Bicycle Compound 213] |  | 1.9
15 | [Sar][Sar]A[Ala(2-furyl)]DVPCPWGPFWCPVNRPGC (linker 8-15-22 via TBMB) [Bicycle Compound 203] |  | 0.49
16 | Ac-[Sar][Sar][dA]HDVPCPWGPFWCPVNRPGC (linker 8-15-22 via TBMB) [Bicycle Compound 194] |  | 1.2
17 | [Sar][Sar]A[dH]DVPCPWGPFWCPVNRPGC (linker 8-15-22 via TBMB) [Bicycle Compound 197] |  | 1.2
18 | Ac-[Sar][Sar]A[dD]DVTCP[1Nal]GPFWCPVNRPGC (linker 8-15-22 via TBMB) [Bicycle Compound 282] |  | 0.87

Row | Binder | Ki (Human EphA2 (Ecto) [1]) [nM] | Ki (Human EphA2 (Ecto) [2]) [nM]
19 | Ac-[Sar][Sar]AH[dD]VPCPWGPFWCPVNRPGC (linker 8-15-22 via TBMB) [Bicycle Compound 210] |  | 1.1
20 | [Sar][Sar]AHDV[Aze]CPWGPFWCPVNRPGC (linker 8-15-22 via TBMB) [Bicycle Compound 221] |  | 3.1
21 | [βAla][Sar][Sar][Sar][Sar][Sar][Sar][Sar][Sar][Sar][Sar]H[dD]VPCPWGPFWCPVNRPGC (linker 16-23-30 via TBMB) [Bicycle Compound 226] |  | 0.84
22 | Ac-[Sar][Sar]A[dH]DVPCPWGPFWCPVNRPGC (linker 8-15-22 via TBMB) [Bicycle Compound 196] |  | 0.95
23 | DLRCGGDPRCAYMNVCA (linker 4-10-16 via TATA) [Bicycle Compound Number 18 (TATA scaffold), DLRCGGDPRCAYMNVCA] | 70.8 | 
24 | [Sar][Sar]A[ThiAz]DVPCPWGPFWCPVNRPGC (linker 8-15-22 via TBMB) [Bicycle Compound 202] |  | 0.7
25 | ESRCSPDARCAYMNVCA (linker 4-10-16 via TATA) [Bicycle Compound Number 20 (TATA scaffold), ESRCSPDARCAYMNVCA] | 57 | 
26 | Ac-[Sar][Sar]A[dH]DVPCP[1Nal]GPFWCP[Tle]N[hArg]PGC (linker 8-15-22 via TBMB) [Bicycle Compound 230] |  | 1.8
27 | Ac-[Sar][Sar]A[dH]DVPCPWGPAWCPVNRPGC (linker 8-15-22 via TBMB; also: A13 (ΨAla): reduced amide backbone bond) [Bicycle Compound 228] |  | 210
28 | Ac-[Sar][Sar]A[dD]DVTCPWGPFWCPVNRPGC (linker 8-15-22 via TBMB) [Bicycle Compound 281] |  | 5.78
29 | ACVPDRRCAYMNVCA (linker 2-8-14 via TATA) [Bicycle Compound Number 16 (TATA scaffold), ACVPDRRCAYMNVCA] | 70 | 
30 | ACMNDWWCAMGWKCA (linker 2-8-14 via TATA) [Bicycle Compound Number 15 (TATA scaffold), ACMNDWWCAMGWKCA] | 278 | 
31 | [Sar][Sar]AHDV[Pip]CPWGPFWCPVNRPGC (linker 8-15-22 via TBMB) [Bicycle Compound 222] |  | 3.4
32 | Ac-[Sar][Sar]A[dD]DVTCP[1Nal]GPF[1Nal]CPVNRPGC (linker 8-15-22 via TBMB) [Bicycle Compound 283] |  | 0.28
33 | Ac-[Sar][Sar]AH[dD]VPCP[1Nal]GPFWCP[Tle]N[hArg]PGC (linker 8-15-22 via TBMB) [Bicycle Compound 227] |  | 0.75
34 | Ac-[Sar][Sar]H[dD]VPCPW[azaGly]PFWCPVNRPGC (linker 7-14-21 via TBMB) [Bicycle Compound 267] |  | 0.66
35 | [Sar][Sar]AHD[Aib]PCPWGPFWCPVNRPGC (linker 8-15-22 via TBMB) [Bicycle Compound 216] |  | 2.77
